Here are results for ten molecules from paper PMC4837003.

In assay [1] the target is HLA-A*0201 heavy chain with β2-microglobulin. Description: differential scanning fluorimetry.
For assay [2], the target named is HLA-DR1 (DRA*0101/DRB*010101), soluble extracellular domains (human).
For assay [3] the target is unchanged. This is another data set of the same source.
In assay [4] the target is HLA-A*0201 heavy chain with β2-microglobulin. The assay is described as follows: circular dichroism.
For assay [5], the target named is HLA-DR1 (DRA*0101/DRB*010101), soluble extracellular domains (human). Description: differential scanning fluorimetry.

Where two headings read alike, the source gives them in different places.

Take SL9 peptide: the apparent Tm by DSF in assay [1] was 59 °C.
For the molecule influenza HA peptide, the apparent Tm by DSF in assay [2] is 82.1 °C; in assay [3] it was 83 °C.
Regarding NS3_(1406(7N)-1415) peptide, the apparent Tm by DSF in assay [1] came to 55.8 °C.
Turning to tyrosinase peptide (TYR), in assay [1], the apparent Tm by DSF turned out to be 67.3 °C.
In the case of ALGIGILTV [MART-1_(27(2L)-35) peptide], in assay [1], the apparent Tm by DSF turned out to be 59.2 °C and the half-life of the complex (slowest phase, peptide dissociation) turned out to be 6.9 h. The apparent Tm by CD in assay [4] stood at 51 °C.
In assay [5], YRAL [Min4 peptide] returned an other of 67.8 °C.
As for YMDGFMSQV [TYR (T5F) peptide], the apparent Tm by DSF in assay [1] turned out to be 61.4 °C. The apparent Tm by CD in assay [4] amounted to 63 °C.
On to LGYGFVNYI [HUD peptide], for which, in assay [1], the apparent Tm by DSF amounted to 44.8 °C.
On to LLYGFVNYV [HUD_(87(2L,9V)-95) peptide], for which the apparent Tm by DSF in assay [1] was 65.1 °C. Also, the apparent Tm by CD in assay [4] was 63 °C.
As for IMDQVPFSV [gp100_(209(2M)-217) peptide], the apparent Tm by DSF in assay [1] stood at 62.2 °C.
